Measurements from US8709741B2, “Methods of diagnosing a plasmodium infection” (priority 2009, dated 2014).

Experiments:
[1] = Enzymatic hydrolysis of purified lipoproteins (NEFA); assay type: biochemical, human; settings: 15 h at 37° C., each sPLA2 at approximately 10×IC50
Description: CM/VLDL, LDL and HDL were purified from human plasma and used either fresh (F) or after minimal oxidization by air and light (Ox). After phospholipid content determination, plasma, LDL and HDL were adjusted to 1.6 mg PL/mL final concentration in PBS calcium. Because low amount was available, the CM/VLDL fraction was adjusted to 1.0 mg PL/mL. Each sample was incubated for 15 hours at 37° C., alone or in the presence of recombinant human GX sPLA2 (hGX PLA2; 25 nM), recombinant human GIIF sPLA2 (hGIIF PLA2; 125 nM), bee venom sPLA2 (bvPLA2; 0.18 nM) and Naja mossambica mossambica venom sPLA2 (Naja PLA2; 0.05 nM). NEFAs were quantified using the NEFA-C kit (WAKO). Values are the mean±SD of triplicate measurements. They were normalized by subtracting NEFA amount in the absence of enzyme. Two independent experiments with lipoproteins from different plasmas were performed, which gave similar qualitative results. Results from one experiment are shown;
Plasma and purified LDL and HDL were adjusted to 1.67 mg phospholipid (PL)/mL final concentration in PBS. Because purification yielded low amount of CM/VLDL, the CM/VLDL fraction was adjusted to 1.00 mg PL/mL. CaCl2 (1 mM final) was added to the lipoprotein fractions. 200 μL of each fraction were deposited in a 96-well plate and incubated for 15 hours at 37° C., alone or in the presence of recombinant human GX sPLA2 (hGX PLA2, 25.0 nM), recombinant human GIIF sPLA2 (hGIIF PLA2, 125.0 nM), bee venom sPLA2 (bvPLA2, 0.18 nM) and Naja mossambica mossambica venom sPLA2 (Naja PLA2, 0.05 nM). NEFAs were measured in triplicate using the NEFA-C kit (WAKO). Value from each fraction was normalized by subtracting the NEFA amount in the corresponding fraction without enzyme. Two independent experiments with lipoproteins from different plasmas were performed, which gave similar qualitative results. According to the experiment, maximum hydrolysis reached 50% or 65% of total PLs in the fraction. […]

[2] = tested on: P. falciparum-infected erythrocytes; test: Hydrolysis of serum-derived and Albumax II-derived parasite cultures (NEFA); assay type: cell-based, human; settings: 50 nM, 6 h, schizont-enriched culture
Description: Parasites were grown in medium containing either 8% human serum (iRBC/S) or 0.5% Albumax II® (iRBC/A). Cultures were semi-synchronized so that they contain mainly mature parasites at the time of the experiment. Both cultures (2.5-3% parasitaemia) were then washed and cells were re-suspended at 50% haematocrit in RPMI 0.05% BSA with or without 50 nM of recombinant GX sPLA2, and incubated for 6 h in culture conditions. Non-infected RBCs (red blood cells) and human serum were processed similarly. Cell supernatants and serum were frozen at −20° C.; erythrocyte ghosts were prepared and frozen. NEFAs in each sample were measured in duplicate upon thawing, using the NEFA-C kit (WAKO). NEFA amount in healthy RBCs (RBC) and in infected cultures (iRBC) is expressed as the sum of NEFAs from paired ghosts and supernatants. Values are the mean of the duplicate measurement, subtracted for values in the absence of enzyme. The experiment was repeated twice and gave similar qualitative results. Results from one experiment are shown;
Parasites were grown for several cycles in culture medium supplemented either with 8% human serum or with 0.5% Albumax II®. Cultures were semi-synchronized by Sorbitol treatment 2-3 days prior to the experiment. […] NEFAs were measured using the NEFA-C kit (WAKO). […]

[3] = tested on: P. falciparum blood stages; test: Sensitivity of the P. falciparum blood stages to GX sPLA2 (15 h treatment, re-invasion); assay type: cell-based; settings: 100 nM
Description: A parasite culture was synchronised on a 4 h window. Parasites aged 0-4 h post-invasion (p.i.) (rings, R), 18-22 h p.i. (trophozoites, T), and 34-38 h p.i. (schizonts, S) were incubated for 15 h in culture conditions with (▪) or without (□) 100 nM recombinant GX sPLA2. Afterwards cells were washed and let grow in normal culture conditions until re-invasion. GX sPLA2 inhibitory activity on the complete parasite cycle was assessed by incubating 0-4 h p.i. parasites for 48 h with GX sPLA2 (cycle). Parasitaemia in each sample was determined from Diff Quick-stained smears. For each stage, 100% parasitaemia was established from parasite growth in the absence of enzyme;
A parasite culture was synchronised on a 4 h-window. Parasites aged 0-4 h post-invasion (rings), 18-22 h post-invasion (trophozoites), and 34-38 h post-invasion (schizonts) were adjusted to 1% parasitaemia and 2% haematocrit in complete medium, and were then incubated in a 96-well plate in a candle jar at 37° C., with or without 100 nM of recombinant GX sPLA2. After 15 hours, cells were centrifuged at 900×g for 2 min, washed in RPMI and re-suspended at a 2% haematocrit in fresh complete medium for further growth. When re-invasion had occurred (P. falciparum invades new RBCs when its 48 hour-development cycle is completed), parasitaemia (%) in each well was determined from Diff Quick-stained smears. GX sPLA2 inhibitory activity on the complete parasite cycle was assessed by incubating rings with the recombinant enzyme for 48 hours.

B1: X: recombinant human group X secreted phospholipase A2 (protein, UniProt O15496 43-165, looked up)
Group 10 secretory …: GILELAGTVGCVGPRTPIAYMKYGCFCGLGGHGQPRDAIDWCCHGHDCCYTRAEEAGCSPKTERYSWQCVNQSVLCGPAENKCQELLCKCDQEIANCLAQTEYNLKYLFYPQFLCEPDSPKCD
preferential order of lipoprotein hydrolysis [1]: HDL>LDL>CM/VLDL
NEFA release from Albumax II-derived versus serum-derived parasite culture [2]: released at the same rate
re-invasion after treatment of rings ([3]; rings 0-4 h post-invasion): 25%
schizonts that completed the cycle after treatment ([3]; schizonts 34-38 h post-invasion): less than 10%
trophozoites that completed the cycle after treatment ([3]; trophozoites 18-22 h post-invasion): less than 10%
